Results: the supplement of paper PMC10567573

B1: SAT2 (parent)
chain: GYGIYYFIYSTWKGRTIYLEDIYV
B2: TRIM55 (parent)
chain: YKSFSKEQQTMDNLEKQLICPICL

Variants of: B1
Assay: protein stability index of a GFP-peptide fusion (GPS, HEK-293T) (PSI 1-6); higher = more stable
Conditions: c terminus: a fixed tail appended
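Further: lentivirally expressed fusions sorted by FACS into six bins by GFP to DsRed ratio, PSI derived from sequencing read proportions per bin multiplied by bin number.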

Protein stability index of substitutions, site by site:
V24: Y 2.53 | K 3.94 | C 3.63 | I 1.48 | R 2.39 | A 2.62 | F 2.91 | G 2.6 | M 1.63 | E 2.6 | S 2.83 | P 2.3
R15: F 4.58 | D 2.9 | N 2.37 | L 3.07 | G 2.53 | H 2.96 | S 2.1 | M 3.05 | P 2.17 | A 4.7 | E 3.72 | C 3.31 | W 3.58 | T 3.03
D21: M 3.04 | A 2.28 | K 4.17 | L 2.9 | R 1.47 | C 2.34 | T 1.75 | I 3.08 | E 2.34 | H 2.67 | P 2.44 | N 2.74
Y18: V 3.04 | A 1.71 | I 1.92 | C 1.89 | M 2.33 | T 2.92 | K 1.88 | S 2.33 | F 3.01 | H 2.59
K13: R 3.04 | S 2.39 | H 2.87 | G 2.94 | P 1.99 | E 3.58 | Y 1.48 | I 2.8 | T 2.87
G14: W 2.43 | T 2.34 | L 2.47 | V 5.04 | H 4.09 | S 2.5 | C 5.03 | R 3.28 | P 2.33 | M 1.94 | N 2.71 | I 2.04 | Y 3.58 | Q 3.24
I8: Y 3.28 | S 3.1 | V 2.02 | R 3.57 | T 4.7
W12: F 2.8 | S 4.37 | P 2.36 | M 4.12 | E 2.55 | D 2.25 | N 3.5 | T 2.5 | C 2.1 | K 2.65 | V 3.31
Y23: W 2.35 | M 2.71 | P 2.43 | H 3.07 | A 2.89 | C 2.65 | F 2.37 | L 1.08 | N 3.18
Y9: C 2.94 | T 2.78 | D 3.06 | V 1.67 | I 1.62 | M 3.46 | R 3.86 | N 2.2 | G 2.77 | S 1.59 | P 2.71 | L 2.57
I22: C 2.41 | S 3.3 | H 2.55 | Y 2.09 | E 2.92 | Q 1.86
I17: G 2.82 | K 3.66 | P 2.91 | Y 2.1 | R 1.72 | E 2.77 | M 1.75 | A 3.11 | F 3.52 | V 2.27 | W 2.17 | D 3.35
E20: F 2.84 | W 2.35 | R 3.97 | L 2.1 | G 2.26 | H 2.91 | A 3.56 | S 3.32 | M 4.05 | V 3.13 | N 4.06 | C 3.04 | T 2.4 | P 2.91
S10: N 2.55 | M 3.91 | Y 2.76 | P 3.17 | E 3.09 | W 2.26 | Q 2.29 | C 2.53
T11: R 2.28 | Y 2.83 | A 2.97 | M 3.99 | C 4.22 | S 2.44 | H 3.48 | D 3.32 | W 3.78 | F 2.43 | V 3.88 | I 2.78 | N 4.08 | Q 2.72
T16: N 1.86 | E 2.53 | V 3.24 | G 3.31 | W 2.95 | C 2.83 | R 1.69 | F 3.53 | M 3.12 | L 3.32 | A 3.27 | S 3.8
L19: S 3.57 | G 3.7 | I 4.11 | Y 4 | F 2.37 | H 2.98 | N 1.73

Variants of: B2
Assay: as above
Conditions: c terminus: a fixed tail appended

Protein stability index of substitutions, site by site:
F4: M 2 | L 2.27 | P 2.9 | Q 2.37 | T 2.44 | G 2.49 | H 2.8 | C 2.59 | K 2.63 | I 2.23 | S 2.64 | W 1.74 | N 2.45 | V 2.24 | Y 2.34 | D 2.43 | E 2.49 | R 2.66 | A 2.74
S5: V 1.99 | Q 2.19 | G 2.13 | P 2.07 | E 2.26 | H 1.81 | T 1.92 | C 2.73 | I 1.96 | L 1.34 | K 2.48 | Y 2.26 | F 1.71 | N 2.4 | W 1.37 | M 2.11 | D 2.18 | R 2.11 | A 1.89
Q9: C 2.15 | A 2.25
K2: I 1.56 | Q 1.59 | D 2.36 | M 2.1 | F 2.09 | S 2.38 | V 2.05 | N 2.12 | P 2.5 | T 1.83 | C 1.93 | R 1.73 | A 2.02 | Y 1.95 | E 1.73 | L 2.52 | H 1.29 | G 2.92 | W 1.96
K6: Y 1.98 | H 1.85 | E 2.04 | S 2.14 | R 2.63 | N 2.04 | V 1.49 | G 2.15 | L 2.91 | M 1.57 | W 2.51 | A 2.91 | T 2.09 | C 2.41 | I 1.85 | Q 2.29 | P 2.05 | F 1.3
Y1: R 2.83 | D 3.46 | E 2.48 | A 2.5 | G 2.35 | I 1.99 | N 2.48 | P 2.7 | S 3.02 | M 2.5 | F 2.02 | H 3.12 | C 2.7 | K 2.68 | Q 2.15 | V 1.97 | W 2.17 | T 2.62 | L 2.94
Q8: S 2.29 | P 2 | I 2.1 | R 1.72 | T 2.17 | V 2.09 | A 2.65 | D 2.07 | W 1.66 | H 2.37 | Y 2 | C 1.96 | E 2.3 | M 1.96 | G 2.83 | F 1.54 | N 2.18 | K 1.8 | L 1.75
S3: F 1.65 | C 2 | V 2.07 | G 1.69 | T 2.69 | N 2.32 | Y 1.44 | E 2.25 | H 2.45 | K 2.44 | D 2.47 | L 1.69 | R 2.43 | A 2.02 | P 2.05 | Q 2.2 | I 1.94 | M 1.85 | W 2.18
E7: R 1.87 | K 2.25 | C 1.98 | T 1.96 | F 1.87 | P 2.27 | N 2.18 | S 1.67 | M 2.37 | H 2.36 | Y 1.72 | L 1.35 | W 1.83 | D 2.29 | V 1.6 | G 1.53 | A 2.08 | Q 1.67 | I 2.4
